Reference: the supplement of paper PMC10567573

B1: CDC25A (parent)
chain: KKFRTKSRTWAGEKSKREMYSRLK
B2: BTBD10 (parent)
chain: DRKLHSRPRKLYKHSSTSSRIAKG

Variants of: B1
Assay: protein stability index of a GFP-peptide fusion (GPS, HEK-293T) (PSI 1-6); higher = more stable
Details: c terminus: a fixed tail appended
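Further: lentivirally expressed fusions sorted by FACS into six bins by GFP to DsRed ratio, PSI derived from sequencing read proportions per bin multiplied by bin number.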

Row | Variant | protein stability index
1 | KKFRTKSRTWAGEKSKREMYSVLK [R22V] | 3.24
2 | KKFRTKSRTWAGEKSKREMYSYLK [R22Y] | 2.03
3 | KKFRTKSRTWAGEKSKREMYSWLK [R22W] | 2.28
4 | KKFRTKSRTWAGEKSKREMYSRMK [L23M] | 2.73
5 | KKFRTKSRTWAGEKSKREMYSRIK [L23I] | 3.33
6 | KKFRTKSRTWAGEKSKREMYSRAK [L23A] | 3.49
7 | KKFRTKSRTWAGEKSKREMYSRSK [L23S] | 3.92
8 | KKFRTKSRTWAGEKSKREMYSRYK [L23Y] | 2.57
9 | KKFRTKSRTWAGEKSKREMYSRKK [L23K] | 3.84
10 | KKFRTKSRTWAGEKSKREMYSRRK [L23R] | 4.46
11 | KKFRTKSRTWAGEKSKREMYSRQK [L23Q] | 3.74
12 | KKFRTKSRTWAGEKSKREMYSRCK [L23C] | 2.87
13 | KKFRTKSRTWAGEKSKREMYSRVK [L23V] | 3.65
14 | KKFRTKSRTWAGEKSKREMYSRHK [L23H] | 3.39
15 | KKFRTKSRTWAGEKSKREMYSRWK [L23W] | 2.41
16 | KKFRTKSRTWAGEKSKREMYSRTK [L23T] | 3.61
17 | KKFRTKSRTWAGEKSKREMYSRPK [L23P] | 3.94
18 | KKFRTKSRTWAGEKSKREMYSRNK [L23N] | 4.01

Row | Variant | protein stability index
19 | KKFRTKSRTWAGEKSKREMYSRLH [K24H] | 2.62
20 | KKFRTKSRTWAGEKSKREMYSRLL [K24L] | 2.31
21 | KKFRTKSRTWAGEKSKREMYSRLD [K24D] | 3.13
22 | KKFRTKSRTWAGEKSKREMYSRLT [K24T] | 2.94
23 | KKFRTKSRTWAGEKSKREMYSRLS [K24S] | 3.16
24 | KKFRTKSRTWAGEKSKREMYSRLN [K24N] | 3.32
25 | KKFRTKSRTWAGEKSKREMYSRLG [K24G] | 2.52
26 | KKFRTKSRTWAGEKSKREMYSRLM [K24M] | 2.37
27 | KKFRTKSRTWAGEKSKREMYSRLC [K24C] | 2.08
28 | KKFRTKSRTWAGEKSKREMYSRLA [K24A] | 2.37
29 | KKFRTKSRTWAGEKSKREMYSRLI [K24I] | 2.32
30 | KKFRTKSRTWAGEKSKREMYSRLE [K24E] | 3.27
31 | KKFRTKSRTWAGEKSKREMYSRLY [K24Y] | 1.37
32 | KKFRTKSRTWAGEKSKREMYSRLP [K24P] | 3.49
33 | KKFRTKSRTWAGEKSKREMYSRLF [K24F] | 2.06
34 | KKFRTKSRTWAGEKSKREMYSRLR [K24R] | 2.91
35 | KKFRTKSRTWAGEKSKREMYSRLQ [K24Q] | 2.58

Variants of: B2
Assay: as above
Details: c terminus: a fixed tail appended

Row | Variant | protein stability index
36 | DRKLFSRPRKLYKHSSTSSRIAKG [H5F] | 4.43
37 | DRKLGSRPRKLYKHSSTSSRIAKG [H5G] | 2.82
38 | DRKLKSRPRKLYKHSSTSSRIAKG [H5K] | 4.09
39 | DRKLESRPRKLYKHSSTSSRIAKG [H5E] | 4.09
40 | DRKLYSRPRKLYKHSSTSSRIAKG [H5Y] | 3.02
41 | DRKLCSRPRKLYKHSSTSSRIAKG [H5C] | 3.9
42 | DRKLWSRPRKLYKHSSTSSRIAKG [H5W] | 3.16
43 | DRKLDSRPRKLYKHSSTSSRIAKG [H5D] | 3.99
44 | DRKLSSRPRKLYKHSSTSSRIAKG [H5S] | 4.34
45 | DRKLQSRPRKLYKHSSTSSRIAKG [H5Q] | 3.69
46 | DRKLLSRPRKLYKHSSTSSRIAKG [H5L] | 3.72
47 | DRKLRSRPRKLYKHSSTSSRIAKG [H5R] | 3.9
48 | DRKLMSRPRKLYKHSSTSSRIAKG [H5M] | 3.43
49 | DRKLASRPRKLYKHSSTSSRIAKG [H5A] | 4.22
50 | DRKLNSRPRKLYKHSSTSSRIAKG [H5N] | 5.44
51 | DRKLVSRPRKLYKHSSTSSRIAKG [H5V] | 3.02
52 | DRKLTSRPRKLYKHSSTSSRIAKG [H5T] | 4.17
53 | DRKLPSRPRKLYKHSSTSSRIAKG [H5P] | 4.5
54 | DRKLISRPRKLYKHSSTSSRIAKG [H5I] | 3.74
55 | DDKLHSRPRKLYKHSSTSSRIAKG [R2D] | 4.04

Row | Variant | protein stability index
56 | DSKLHSRPRKLYKHSSTSSRIAKG [R2S] | 4.14
57 | DYKLHSRPRKLYKHSSTSSRIAKG [R2Y] | 3.16
58 | DQKLHSRPRKLYKHSSTSSRIAKG [R2Q] | 4.19
59 | DMKLHSRPRKLYKHSSTSSRIAKG [R2M] | 3.89
60 | DIKLHSRPRKLYKHSSTSSRIAKG [R2I] | 2.66
61 | DEKLHSRPRKLYKHSSTSSRIAKG [R2E] | 4.39
62 | DPKLHSRPRKLYKHSSTSSRIAKG [R2P] | 4.02
63 | DVKLHSRPRKLYKHSSTSSRIAKG [R2V] | 3.65
64 | DNKLHSRPRKLYKHSSTSSRIAKG [R2N] | 3.96
65 | DAKLHSRPRKLYKHSSTSSRIAKG [R2A] | 3.42
66 | DCKLHSRPRKLYKHSSTSSRIAKG [R2C] | 3.62
67 | DTKLHSRPRKLYKHSSTSSRIAKG [R2T] | 4.09
68 | DHKLHSRPRKLYKHSSTSSRIAKG [R2H] | 4.46
69 | DKKLHSRPRKLYKHSSTSSRIAKG [R2K] | 3.83
70 | DLKLHSRPRKLYKHSSTSSRIAKG [R2L] | 2.7
71 | DWKLHSRPRKLYKHSSTSSRIAKG [R2W] | 3.68
72 | DFKLHSRPRKLYKHSSTSSRIAKG [R2F] | 2.65
73 | DGKLHSRPRKLYKHSSTSSRIAKG [R2G] | 3.95
74 | TRKLHSRPRKLYKHSSTSSRIAKG [D1T] | 3.16
75 | PRKLHSRPRKLYKHSSTSSRIAKG [D1P] | 3.42

Row | Variant | protein stability index
76 | KRKLHSRPRKLYKHSSTSSRIAKG [D1K] | 3.2
77 | YRKLHSRPRKLYKHSSTSSRIAKG [D1Y] | 3.03
78 | FRKLHSRPRKLYKHSSTSSRIAKG [D1F] | 2.9
79 | CRKLHSRPRKLYKHSSTSSRIAKG [D1C] | 3.94
80 | ARKLHSRPRKLYKHSSTSSRIAKG [D1A] | 3.27
81 | SRKLHSRPRKLYKHSSTSSRIAKG [D1S] | 3.89
82 | HRKLHSRPRKLYKHSSTSSRIAKG [D1H] | 3.42
83 | ERKLHSRPRKLYKHSSTSSRIAKG [D1E] | 3.89
84 | GRKLHSRPRKLYKHSSTSSRIAKG [D1G] | 3.47
85 | QRKLHSRPRKLYKHSSTSSRIAKG [D1Q] | 3.81
86 | RRKLHSRPRKLYKHSSTSSRIAKG [D1R] | 3.05
87 | NRKLHSRPRKLYKHSSTSSRIAKG [D1N] | 4
88 | VRKLHSRPRKLYKHSSTSSRIAKG [D1V] | 3.93
89 | LRKLHSRPRKLYKHSSTSSRIAKG [D1L] | 3.2
90 | WRKLHSRPRKLYKHSSTSSRIAKG [D1W] | 2.8
91 | MRKLHSRPRKLYKHSSTSSRIAKG [D1M] | 3.8
92 | IRKLHSRPRKLYKHSSTSSRIAKG [D1I] | 2.54
93 | DRKLHSRWRKLYKHSSTSSRIAKG [P8W] | 3.95
94 | DRKLHSRYRKLYKHSSTSSRIAKG [P8Y] | 2.82
